This note sets out measurements from patent publication US8343500 (APITOPE TECHNOLOGY BRISTOL, dated 2013).

The target in test [1] is T1, HLA-DR2b (human).
T1 construct: whole, on cells; also called DR2b [DRB1*1501]; HLA:DR2 (DRB1*1501)
The test can be described thus: conclusion of Example 6; tolerance induction in HLA:DR2 (DRB1*1501) transgenic mice, no direct binding assay.

The target of test [2] is HLA-DQ6 (human, UniProt P01909 24-254; P01920 33-261). The test can be described thus: cell-based or functional assay.

For GFKGVDAQGTLSKIF (also called ATX-MS-06; APITOPE MS6) [MBP 140-154], the binding result in test [1] was “binds”.
As to RASDYKSAHKGFKGV [MBP 130-144], the “proliferation of T-cell clone MS17:A2 ([3H]-thymidine, stimulation index), against Mgar control cells” value in test [2] was found to be 3.24 fold.
In test [2], PRHRDTGILDSIGRF [MBP 30-44] showed a proliferation of T-cell clone MS 49:D3 ([3H]-thymidine, stimulation index), against Mgar control cells of 1.5 fold.
